Measured values as given in patent US20250074942A1, “COMPOSITIONS AND METHODS FOR COVALENT PEPTIDE-BASED MODULATORS OF HLA-E” (Calico Life Sciences LLC, priority 2022, published 2025).

Target: HLA-E/B2M complex, refolded and biotinylated ([HLAE(hu)(22-305)]-Avitag + [B2M(h)(21-119)]) (human), P13747
Test: cross-linking, 10-fold excess over [HLA-E+VL9], 4 h 37 C, LC-MS

| Binder | % cross-linking with HLA-E |
| --- | --- |
| VMCPRTLFL (modifications not checked) [VL9-3 Cys(mSF)] | 73% |
| VMAPRTLCL (modifications not checked) [VL9-8 Cys(mSF)] | 87% |

Other lines, results leading:

| % cross-linking with HLA-E | Binder |
| --- | --- |
| 22% | VMAPRTCFL (modifications not checked) [VL9-7 Cys(mSF)] |
| 36% | VMACRTLFL (modifications not checked) [VL9-4 Cys(mSF)] |
